Test results from US20210032299A1 (Eli Lilly, published 2021).
Starred links: 1 amine or outer side, 2 acyl side, 3 side chain; linkers in the order of their positions; H or OH if unused. Non-standard residues stand in square brackets, D forms with d. Groups on a side chain read outwards from the residue. No end group written: not given here. *: point of attachment. C20 diacid = O=C(O)CCCCCCCCCCCCCCCCCCC(=O)*; C18 diacid = O=C(O)CCCCCCCCCCCCCCCCC(=O)*; γGlu = O=C(O)[C@H](CCC(=O)[*:2])N[*:1]; 4Pal = N[C@@H](Cc1ccncc1)C(=O)O; αMeL = CC(C)C[C@](C)(N)C(=O)O; Orn = NCCC[C@H](N)C(=O)O; AEEA = NCCOCCOCC(=O)O; Aib = CC(C)(N)C(=O)O

Columns and labels:
human GLP-1 receptor = target: T1, human GLP-1 receptor (human, UniProt P43220 24-463); assay: SPA, displacement of [125I]-GLP-1 from hGLP-1R membranes, 0.1% bacitracin
T1 construct: whole, on cells; Assayed as crude membranes of stably transfected HEK293 cells; also called hGLP1R; hGLP-1R
Procedure: The binding buffer contains 25 mM HEPES, pH 7.4, 2.5 mM CaCl₂, 1 mM MgCl₂, 0.1% (w/v) bacitracin, 0.003% (w/v) TWEEN®-20, and Roche Complete™ Protease Inhibitors without EDTA.
(§1) Data are analyzed using four-parameter (curve maximum, curve minimum, […], Hill slope) nonlinear regression routines (Genedata Screener, version 12.0.4, Genedata AG, Basal, Switzerland). […] Values for Kᵢ are reported as the geometric mean, with error expressed as the standard error of the mean (SEM) and n is equal to the number of independent replicates (determined in assays performed on different days). Geometric Means are calculated as follows: […]

[1] = target: T2, human glucose-dependent insulinotropic polypeptide (GIP) receptor (human, UniProt P48546 22-466); assay: SPA, displacement of [125I]-GIP from hGIPR membranes, 0.1% bacitracin
T2 construct: whole, on cells; Assayed as crude membranes of stably transfected CHO cells; also called hGIPR; human GIP receptor
T2 sequence (looked up): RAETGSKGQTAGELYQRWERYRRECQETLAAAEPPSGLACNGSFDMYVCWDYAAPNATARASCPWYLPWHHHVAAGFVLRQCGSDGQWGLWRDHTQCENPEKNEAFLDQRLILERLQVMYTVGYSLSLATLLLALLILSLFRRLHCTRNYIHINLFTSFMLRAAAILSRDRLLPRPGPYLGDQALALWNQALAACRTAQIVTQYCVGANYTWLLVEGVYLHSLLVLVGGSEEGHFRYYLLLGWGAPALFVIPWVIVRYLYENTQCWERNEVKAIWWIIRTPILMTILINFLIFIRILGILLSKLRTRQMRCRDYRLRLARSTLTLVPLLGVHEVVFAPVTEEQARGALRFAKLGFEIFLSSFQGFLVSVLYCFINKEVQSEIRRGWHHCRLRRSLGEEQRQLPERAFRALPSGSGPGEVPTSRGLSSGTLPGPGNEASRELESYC
Procedure: The binding buffer contains 25 mM HEPES, pH 7.4, 2.5 mM CaCl₂, 1 mM MgCl₂, 0.1% (w/v) bacitracin, 0.003% (w/v) TWEEN®-20, and Roche Complete™ Protease Inhibitors without EDTA. […] Plates are sealed and mixed on a plate shaker (setting 6) for 1 minute and read with a PerkinElmer Trilux MicroBeta® scintillation counter after 2.5 to 12 hours of incubation/settling time at room temperature.
as §1

B1: Example 9 (peptide)
peptide: YXEGTFISDYSILLDKKHQXDFVNWLLAQGPSSGAPPPS
modifications: D-Ala2; K17((2-[2-(2-Amino-ethoxy)-ethoxy]-acetyl)2-(γ-Glu)-CO-(CH2)18-CO2H); Aib20; C-terminal amide
Ki (human GLP-1 receptor): 168 nM | Ki [1]: 0.11 nM

B2: Example 31 (peptide)
peptide: Y[Aib]EGTFISDYSILLDKK([AEEA-AEEA-γGlu-C18 diacid])HQ[Aib]DFVNYLLAAGPSSGAPPPS-NH2
modifications: N-terminus assumed
SMILES: CC[C@H](C)[C@H](NC(=O)[C@H](CO)NC(=O)[C@H](Cc1ccc(O)cc1)NC(=O)[C@H](CC(=O)O)NC(=O)[C@H](CO)NC(=O)[C@@H](NC(=O)[C@H](Cc1ccccc1)NC(=O)[C@@H](NC(=O)CNC(=O)[C@H](CCC(=O)O)NC(=O)C(C)(C)NC(=O)[C@@H](N)Cc1ccc(O)cc1)[C@@H](C)O)[C@@H](C)CC)C(=O)N[C@@H](CC(C)C)C(=O)N[C@@H](CC(C)C)C(=O)N[C@@H](CC(=O)O)C(=O)N[C@@H](CCCCN)C(=O)N[C@@H](CCCCNC(=O)COCCOCCNC(=O)COCCOCCNC(=O)CC[C@H](NC(=O)CCCCCCCCCCCCCCCCC(=O)O)C(=O)O)C(=O)N[C@@H](Cc1c[nH]cn1)C(=O)N[C@@H](CCC(N)=O)C(=O)NC(C)(C)C(=O)N[C@@H](CC(=O)O)C(=O)N[C@@H](Cc1ccccc1)C(=O)N[C@H](C(=O)N[C@@H](CC(N)=O)C(=O)N[C@@H](Cc1ccc(O)cc1)C(=O)N[C@@H](CC(C)C)C(=O)N[C@@H](CC(C)C)C(=O)N[C@@H](C)C(=O)N[C@@H](C)C(=O)NCC(=O)N1CCC[C@H]1C(=O)N[C@@H](CO)C(=O)N[C@@H](CO)C(=O)NCC(=O)N[C@@H](C)C(=O)N1CCC[C@H]1C(=O)N1CCC[C@H]1C(=O)N1CCC[C@H]1C(=O)N[C@@H](CO)C(N)=O)C(C)C
Ki (human GLP-1 receptor): 266 nM | Ki [1]: 0.0473 nM

B3: Example 75 (peptide)
peptide: YXEGTXISDYSIXLDKKHQXDFVEXLLETGPSSGAPPPS
modifications: Aib2; Iva6; αMeL13; K17((2-[2-(2-Amino-ethoxy)-ethoxy]-acetyl)2-(γ-Glu)-CO-(CH2)18-CO2H); Aib20; 4-Pal25; C-terminal amide
Ki [1]: 0.0626 nM

B4: Example 77 (peptide)
peptide: YXEGTXISDYSIXLDXKHQXDFVEXLLETGPSSGAPPPS
modifications: Aib2; Iva6; αMeL13; Orn16; K17((2-[2-(2-Amino-ethoxy)-ethoxy]-acetyl)2-(γ-Glu)-CO-(CH2)18-CO2H); Aib20; 4-Pal25; C-terminal amide
Ki [1]: 0.0841 nM

B5: Example 80 (peptide)
peptide: Y[Aib]EGTFISDYSI[αMeL]LD[Orn]K([AEEA-AEEA-γGlu-C20 diacid])HQ[Aib]DFVE[4Pal]LLETGPSSGAPPPS-NH2
modifications: N-terminus assumed
SMILES: CC[C@H](C)[C@H](NC(=O)[C@H](Cc1ccccc1)NC(=O)[C@@H](NC(=O)CNC(=O)[C@H](CCC(=O)O)NC(=O)C(C)(C)NC(=O)[C@@H](N)Cc1ccc(O)cc1)[C@@H](C)O)C(=O)N[C@@H](CO)C(=O)N[C@@H](CC(=O)O)C(=O)N[C@@H](Cc1ccc(O)cc1)C(=O)N[C@@H](CO)C(=O)N[C@H](C(=O)N[C@@](C)(CC(C)C)C(=O)N[C@@H](CC(C)C)C(=O)N[C@@H](CC(=O)O)C(=O)N[C@@H](CCCN)C(=O)N[C@@H](CCCCNC(=O)COCCOCCNC(=O)COCCOCCNC(=O)CC[C@H](NC(=O)CCCCCCCCCCCCCCCCCCC(=O)O)C(=O)O)C(=O)N[C@@H](Cc1c[nH]cn1)C(=O)N[C@@H](CCC(N)=O)C(=O)NC(C)(C)C(=O)N[C@@H](CC(=O)O)C(=O)N[C@@H](Cc1ccccc1)C(=O)N[C@H](C(=O)N[C@@H](CCC(=O)O)C(=O)N[C@@H](Cc1ccncc1)C(=O)N[C@@H](CC(C)C)C(=O)N[C@@H](CC(C)C)C(=O)N[C@@H](CCC(=O)O)C(=O)N[C@H](C(=O)NCC(=O)N1CCC[C@H]1C(=O)N[C@@H](CO)C(=O)N[C@@H](CO)C(=O)NCC(=O)N[C@@H](C)C(=O)N1CCC[C@H]1C(=O)N1CCC[C@H]1C(=O)N1CCC[C@H]1C(=O)N[C@@H](CO)C(N)=O)[C@@H](C)O)C(C)C)[C@@H](C)CC
Ki [1]: 0.0828 nM

B6: Example 14 (peptide)
peptide: Y[dA]EGTFISDYSILLDKK([AEEA-AEEA-γGlu-C20 diacid])HQQDFVEWLLAQGPSSGAPPPS-NH2
modifications: N-terminus assumed
SMILES: CC[C@H](C)[C@H](NC(=O)[C@H](CO)NC(=O)[C@H](Cc1ccc(O)cc1)NC(=O)[C@H](CC(=O)O)NC(=O)[C@H](CO)NC(=O)[C@@H](NC(=O)[C@H](Cc1ccccc1)NC(=O)[C@@H](NC(=O)CNC(=O)[C@H](CCC(=O)O)NC(=O)[C@@H](C)NC(=O)[C@@H](N)Cc1ccc(O)cc1)[C@@H](C)O)[C@@H](C)CC)C(=O)N[C@@H](CC(C)C)C(=O)N[C@@H](CC(C)C)C(=O)N[C@@H](CC(=O)O)C(=O)N[C@@H](CCCCN)C(=O)N[C@@H](CCCCNC(=O)COCCOCCNC(=O)COCCOCCNC(=O)CC[C@H](NC(=O)CCCCCCCCCCCCCCCCCCC(=O)O)C(=O)O)C(=O)N[C@@H](Cc1c[nH]cn1)C(=O)N[C@@H](CCC(N)=O)C(=O)N[C@@H](CCC(N)=O)C(=O)N[C@@H](CC(=O)O)C(=O)N[C@@H](Cc1ccccc1)C(=O)N[C@H](C(=O)N[C@@H](CCC(=O)O)C(=O)N[C@@H](Cc1c[nH]c2ccccc12)C(=O)N[C@@H](CC(C)C)C(=O)N[C@@H](CC(C)C)C(=O)N[C@@H](C)C(=O)N[C@@H](CCC(N)=O)C(=O)NCC(=O)N1CCC[C@H]1C(=O)N[C@@H](CO)C(=O)N[C@@H](CO)C(=O)NCC(=O)N[C@@H](C)C(=O)N1CCC[C@H]1C(=O)N1CCC[C@H]1C(=O)N1CCC[C@H]1C(=O)N[C@@H](CO)C(N)=O)C(C)C
Ki [1]: 0.46 nM

B7: Example 15 (peptide)
peptide: Y[dA]EGTFISDYSILLDKK([AEEA-AEEA-γGlu-C20 diacid])HQQDFVNYLLAQGPSSGAPPPS-NH2
modifications: N-terminus assumed
SMILES: CC[C@H](C)[C@H](NC(=O)[C@H](CO)NC(=O)[C@H](Cc1ccc(O)cc1)NC(=O)[C@H](CC(=O)O)NC(=O)[C@H](CO)NC(=O)[C@@H](NC(=O)[C@H](Cc1ccccc1)NC(=O)[C@@H](NC(=O)CNC(=O)[C@H](CCC(=O)O)NC(=O)[C@@H](C)NC(=O)[C@@H](N)Cc1ccc(O)cc1)[C@@H](C)O)[C@@H](C)CC)C(=O)N[C@@H](CC(C)C)C(=O)N[C@@H](CC(C)C)C(=O)N[C@@H](CC(=O)O)C(=O)N[C@@H](CCCCN)C(=O)N[C@@H](CCCCNC(=O)COCCOCCNC(=O)COCCOCCNC(=O)CC[C@H](NC(=O)CCCCCCCCCCCCCCCCCCC(=O)O)C(=O)O)C(=O)N[C@@H](Cc1c[nH]cn1)C(=O)N[C@@H](CCC(N)=O)C(=O)N[C@@H](CCC(N)=O)C(=O)N[C@@H](CC(=O)O)C(=O)N[C@@H](Cc1ccccc1)C(=O)N[C@H](C(=O)N[C@@H](CC(N)=O)C(=O)N[C@@H](Cc1ccc(O)cc1)C(=O)N[C@@H](CC(C)C)C(=O)N[C@@H](CC(C)C)C(=O)N[C@@H](C)C(=O)N[C@@H](CCC(N)=O)C(=O)NCC(=O)N1CCC[C@H]1C(=O)N[C@@H](CO)C(=O)N[C@@H](CO)C(=O)NCC(=O)N[C@@H](C)C(=O)N1CCC[C@H]1C(=O)N1CCC[C@H]1C(=O)N1CCC[C@H]1C(=O)N[C@@H](CO)C(N)=O)C(C)C
Ki [1]: 0.471 nM

B8: Example 92 (peptide)
peptide: Y[Aib]EGTFISDYSI[αMeL]LDKIHQ[Aib]DFVEYK([AEEA-AEEA-γGlu-C20 diacid])LEQGPSSGAPPPS-NH2
modifications: N-terminus assumed
SMILES: CC[C@H](C)[C@H](NC(=O)[C@H](CCCCN)NC(=O)[C@H](CC(=O)O)NC(=O)[C@H](CC(C)C)NC(=O)[C@](C)(CC(C)C)NC(=O)[C@@H](NC(=O)[C@H](CO)NC(=O)[C@H](Cc1ccc(O)cc1)NC(=O)[C@H](CC(=O)O)NC(=O)[C@H](CO)NC(=O)[C@@H](NC(=O)[C@H](Cc1ccccc1)NC(=O)[C@@H](NC(=O)CNC(=O)[C@H](CCC(=O)O)NC(=O)C(C)(C)NC(=O)[C@@H](N)Cc1ccc(O)cc1)[C@@H](C)O)[C@@H](C)CC)[C@@H](C)CC)C(=O)N[C@@H](Cc1c[nH]cn1)C(=O)N[C@@H](CCC(N)=O)C(=O)NC(C)(C)C(=O)N[C@@H](CC(=O)O)C(=O)N[C@@H](Cc1ccccc1)C(=O)N[C@H](C(=O)N[C@@H](CCC(=O)O)C(=O)N[C@@H](Cc1ccc(O)cc1)C(=O)N[C@@H](CCCCNC(=O)COCCOCCNC(=O)COCCOCCNC(=O)CC[C@H](NC(=O)CCCCCCCCCCCCCCCCCCC(=O)O)C(=O)O)C(=O)N[C@@H](CC(C)C)C(=O)N[C@@H](CCC(=O)O)C(=O)N[C@@H](CCC(N)=O)C(=O)NCC(=O)N1CCC[C@H]1C(=O)N[C@@H](CO)C(=O)N[C@@H](CO)C(=O)NCC(=O)N[C@@H](C)C(=O)N1CCC[C@H]1C(=O)N1CCC[C@H]1C(=O)N1CCC[C@H]1C(=O)N[C@@H](CO)C(N)=O)C(C)C
Ki [1]: 0.0331 nM
